From FireProtDB (doi:10.1021/bi801431x)
Several values for one entry are separate records, joined by “and”; a condition that tells them apart may be missing. Equal entries are not always repeated.

B1: Aspartate aminotransferase, P00509 (parent)
chain: MFENITAAPADPILGLADLFRADERPGKINLGIGVYKDETGKTPVLTSVKKAEQYLLENETTKNYLGIDGIPEFGRCTQELLFGKGSALINDKRARTAQTPGGTGALRVAADFLAKNTSVKRVWVSNPSWPNHKSVFNSAGLEVREYAYYDAENHTLDFDALINSLNEAQAGDVVLFHGCCHNPTGIDPTLEQWQTLAQLSVEKGWLPLFDFAYQGFARGLEEDAEGLRAFAAMHKELIVASSYSKNFGLYNERVGACTLVAADSETVDRAFSQMKAAIRANYSNPPAHGASVVATILSNDALRAIWEQELTDMRQRIQRMRQLFVNTLQEKGANRDFSFIIKQNGMFSFSGLTKEQVLRLREEFGVYAVASGRVNVAGMTPDNMAPLCEAIVAVL

Variants of: B1
Details: Escherichia coli (strain K12); pH 7.5; 25 °C; Urea; Fluorescence; Potassium phosphate 20 mM; reversible: Yes; structure 1AMQ; whole UniProt chain shown

| Variant | ddG of mutation (higher = less stable) | denaturant midpoint (higher = more stable) |
| --- | --- | --- |
| MFENITAAPADPILGLADLFRADERPGKINLGIGVYKDETGKTPVLTSVKKAEQYLLENETTKNYLGIDGIPEFGRCTQELLFGKGSALINDKRARTAQTPGGTGALRVAADFLAKNTSVKRVWVSNPSWPNHKSVFNSAGLEVREYAYYDAENHTLDFDALINSLNEAQAGDVVLFHGCCHNPTGIDPTLEQWQTLAQLSVEKGWLPLFDFAYQGFARGLEEDAEGLRAFAAMHKELIVASSYSKNFGLYNEMVGACTLVAADSETVDRAFSQMKAAIRANYSNPPAHGASVVATILSNDALRAIWEQELTDMRQRIQRMRQLFVNTLQEKGANRDFSFIIKQNGMFSFSGLTKEQVLRLREEFGVYAVASGRVNVAGMTPDNMAPLCEAIVAVL [R254M] | 3.8 kcal/mol and 3.4 kcal/mol | 3.06 M and 3.12 M and 5.19 M |
| MFENITAAPADPILGLADLFRADERPGKINLGIGVYKDETGKTPVLTSVKKAEQYLLENETTKNYLGIDGIPEFGRCTQELLFGKGSALINDKRARTAQTPGGTGALRVAADFLAKNTSVKRVWVSNPSWPNHKSVFNSAGLEVREYAYYDAENHTLDFDALINSLNEAQAGDVVLFHGCCHNPTGIDPTLEQWQTLAQLSVEKGWLPLFDFAYQGFARGLEEDAEGLRAFAAMHKELIVASSYSKNFGLYNEKVGACTLVAADSETVDRAFSQMKAAIRANYSNPPAHGASVVATILSNDALRAIWEQELTDMRQRIQRMRQLFVNTLQEKGANRDFSFIIKQNGMFSFSGLTKEQVLRLREEFGVYAVASGRVNVAGMTPDNMAPLCEAIVAVL [R254K] | 7.6 kcal/mol and 5 kcal/mol | – |
| MFENITAAPADPILGLADLFRADERPGKINLGIGVYKDETGKTPVLTSVKKAEQYLLENETTKNYLGIDGIPEFGRCTQELLFGKGSALINDKRARTAQTPGGTGALRVAADFLAKNTSVKRVWVSNPSWPNHKSVFNSAGLEVREYAYYDAENHTLDFDALINSLNEAQAGDVVLFHGCCHNPTGIDPTLEQWQTLAQLSVEKGWLPLFDFAYQGFARGLEEDAEGLRAFAAMHKELIVASSYSKNFGLYNERVGACTLVAADSETVDRAFSQMKAAIRADYSNPPAHGASVVATILSNDALRAIWEQELTDMRQRIQRMRQLFVNTLQEKGANRDFSFIIKQNGMFSFSGLTKEQVLRLREEFGVYAVASGRVNVAGMTPDNMAPLCEAIVAVL [N282D] | -0.8 kcal/mol | 4.15 M and 4.9 M and 5.13 M |
| MFENITAAPADPILGLADLFRADERPGKINLGIGVYKDETGKTPVLTSVKKAEQYLLENETTKNYLGIDGIPEFGRCTQELLFGKGSALINDKRARTAQTPGGTGALRVAADFLAKNTSVKRVWVSNPSWPNHKSVFNSAGLEVREYAYYDAENHTLDFDALINSLNEAQAGDVVLFHGCCHNPTGIDPTLEQWQTLAQLSVEKGWLPLFDFAYQGFARGLEEDAEGLRAFAAMHKELIVASSYSKNFGLYNERVGACTLVAADSETVDRAFSQMKAAIRARYSNPPAHGASVVATILSNDALRAIWEQELTDMRQRIQRMRQLFVNTLQEKGANRDFSFIIKQNGMFSFSGLTKEQVLRLREEFGVYAVASGRVNVAGMTPDNMAPLCEAIVAVL [N282R] | 2.6 kcal/mol | 3.3 M and 5.17 M |
| MFENITAAPADPILGLADLFRADERPGKINLGIGVYKDETGKTPVLTSVKKAEQYLLENETTMNYLGIDGIPEFGRCTQELLFGKGSALINDKRARTAQTPGGTGALRVAADFLAKNTSVKRVWVSNPSWPNHKSVFNSAGLEVREYAYYDAENHTLDFDALINSLNEAQAGDVVLFHGCCHNPTGIDPTLEQWQTLAQLSVEKGWLPLFDFAYQGFARGLEEDAEGLRAFAAMHKELIVASSYSKNFGLYNQRVGACTLVAADSETVDRAFSQMKAAIRANYSNPPAHGASVVATILSNDALRAIWEQELTDMRQRIQRMRQLFVNTLQEKGANRDFSFIIKQNGMFSFSGLTKEQVLRLREEFGVYAVASGRVNVAGMTPDNMAPLCEAIVAVL [K63M E253Q] | 5.3 kcal/mol and 4.6 kcal/mol | – |
| MFENITAAPADPILGLADLFRADERPGKINLGIGVYKDETGKTPVLTSVKKAEQYLLENETTKNYLGIDGIPEFGRCTQELLFGKGSALINDKRARTAQTPGGTGALRVAADFLAKNTSVKRVWVSNPSWPNHKSVFNSAGLEVREYAYYDAENHTLDFDALINSLNEAQAGDVVLFHGCCHNPTGIDPTLEQWQTLAQLSVEKGWLPLFDFAYQGFARGLEEDAEGLRAFAAMHKELIVASSYSKNFGLYNERVGACTLVAADSETVDRAFSQMKAAIRANYSRPPAHGASVVATILSNDALRAIWEQELTDMRQRIQRMRQLFVNTLQEKGANRDFSFIIKQNGMFSFSGLTKEQVLRLREEFGVYAVASGRVNVAGMTPDNMAPLCEAIVAVL [N285R] | 4.4 kcal/mol and 5.9 kcal/mol | 2.91 M and 2.66 M and 4.24 M |
| MFENITAAPADPILGLADLFRADERPGKINLGIGVYKDETGKTPVLTSVKKAEQYLLENETTKNYLGIDGIPEFGRCTQELLFGKGSALINDKRARTAQTPGGTGALRVAADFLAKNTSVKRVWVSNPSWPNHKSVFNSAGLEVREYAYYDAENHTLDFDALINSLNEAQAGDVVLFHGCCHNPTGIDPTLEQWQTLAQLSVEKGWLPLFDFAYQGFARGLEEDAEGLRAFAAMHKELIVASSYSKNFGLYNKRVGACTLVAADSETVDRAFSQMKAAIRANYSNPPAHGASVVATILSNDALRAIWEQELTDMRQRIQRMRQLFVNTLQEKGANRDFSFIIKQNGMFSFSGLTKEQVLRLREEFGVYAVASGRVNVAGMTPDNMAPLCEAIVAVL [E253K] | 7.6 kcal/mol and 7.1 kcal/mol | – |
| MFENITAAPADPILGLADLFRADERPGKINLGIGVYKDETGKTPVLTSVKKAEQYLLENETTKNYLGIDGIPEFGRCTQELLFGKGSALINDKRARTAQTPGGTGALRVAADFLAKNTSVKRVWVSNPSWPNHKSVFNSAGLEVREYAYYDAENHTLDFDALINSLNEAQAGDVVLFHGCCHNPTGIDPTLEQWQTLAQLSVEKGWLPLFDFAYQGFARGLEEDAEGLRAFAAMHKELIVASSYSKNFGLYNQRVGACTLVAADSETVDRAFSQMKAAIRANYSNPPAHGASVVATILSNDALRAIWEQELTDMRQRIQRMRQLFVNTLQEKGANRDFSFIIKQNGMFSFSGLTKEQVLRLREEFGVYAVASGRVNVAGMTPDNMAPLCEAIVAVL [E253Q] | 6.3 kcal/mol and 5.4 kcal/mol | – |
